This series deals with the molecule itself. Description: dimer-tetramer equilibrium assay.

Several values for one entry are separate records, joined by “and”; a condition that tells them apart may be missing. Identical values can stand only once.

B1: recombinant ALDOB WT (aldolase B) (enzyme, UniProt Q91Y97 1-364, looked up)
chain: MAHRFPALTPEQKKELSEIAQRIVANGKGILAADESVGTMGNRLQRIKVENTEENRRQFRELLFSVDNSISQSIGGVILFHETLYQKDSQGNLFRNVLKEKGIVVGIKLDQGGAPLAGTNKETTIQGLDGLSERCAQYKKDGVDFGKWRAVLRIADQCPSSLAIQENANALARYASICQQNGLVPIVEPEVLPDGDHDLEHCQYVSEKVLAAVYKALNDHHVYLEGTLLKPNMVTAGHACTKKYTPEQVAMATVTALHRTVPAAVPGICFLSGGMSEEDATLNLNAINRCPLPRPWKLSFSYGRALQASALAAWGGKAANKKATQEAFMKRAMANCQAAQGQYVHTGSSGAAATQSLFTASYTY
Turning to B1, the “stoichiometry N” value is 2 and 4.

The record behind these values is article PMC12036799 (Metabolism: clinical and experimental, 2025).
